# Experimental data as given in patent publication US12397036B2, “Peptide exchange protein” (Cambridge Enterprise Limited, priority 2018, dated 2025).
# Experiments:
# [1] = target: T1, surface MHC class I molecules (HLA-A*68:02) on HeLaM cells (Homo sapiens, UniProt P04439, A269V/D140Y/D185E/E176V/E277Q/E87N/F33Y/G231S/I121R/I166T/I218V/L180W/L300P/L318F/N151K/P208A/P217A/Q86R/R138H/R169H/S129P/T345S/V36M); experiment: Binding of exogenous soluble TAPBPR to cells (PeTe-4 staining); settings: 100 nM, 15 min, 37° C.
# T1 construct: HLA-A68 (MHC class I) expressed on HeLa; endogenous in cells; host or cells: HeLaM and derivatives (TAPBPR-KO with or without TAPBPR/tapasin constructs, +Her2, Her2-KO, +PDL1, pD-GFP); in some arms HeLaM-HLA-ABC-KO re-expressing HLA-A*68:02
# Method: (§1) (g) Dose response curves of IFN-γ treated HeLaM and HeLaM-HLA-ABC^KO cells treated −/+100 nM TAPBPR with increasing concentrations of ETVSK*QSNV for 15 min at 37° C. Line graphs show MFI−/+s.e.m from three independent experiments. […] (h) Histograms of the typical fluorescent peptide binding observed using flow cytometry. (i) Bar graphs showing the MFI of fluorescent peptide binding to HeLaM HLA-ABC^KO+A2−/+s.e.m from two independent experiments with duplicates. ***P≤0.001, ****P≤0.0001, n/s not significant, using unpaired two-tailed t-test.
# (§2) Following trypsinisation, cells were washed in 1% bovine serum albumin (BSA), dissolved in 1×PBS at 4° C. and then stained for 30 min at 4° C. in 1% BSA containing one of the following antibodies: W6/32, pete4, pasta-1, anti-HLA-A68-reactive mAb, BB7.2 or with an isotype control antibody. After washing the cells to remove excess unbound antibody, the primary antibodies bound to the cells were detected by incubation at 4° C. for 25 min with either goat anti-mouse Alexa-Fluor 647 IgG (Invitrogen Molecular Probes, Thermo Fisher Scientific) or with Alexa-Fluor 647-conjugated streptavidin (Invitrogen Molecular Probes, Thermo Fisher […]
# [2] = system: surface MHC class I molecules (HLA-A*68:02) on HeLaM cells; experiment: as above; set-up: species or system human; settings: cells lacking classical MHC class I expression
# Method: as §1, §2
# [3] = target: surface GFP on HeLaM cells (Aequorea victoria, UniProt P42212, F64L/H231L/S65T)
# Method: (B) Histograms and (C) Bar graphs compare the binding of recombinant soluble TAPBPR (TAPBPR) with recombinant TAPBPR-fused to a nanobody specific for GFP (TAPBPR-GFPNB) to HeLaM cells (left) and HeLaM-pD-GFP cells (right). Histograms show the level of TAPBPR when the two cell lines were incubated with 100 nM protein while bar graphs summarise results using a range of concentrations of protein (0.001-100 nM). […] Each bar represents mean and standard deviation of three independent experiments.
# HLA-A*68:02 = target: T2, HLA-A*68:02 (Homo sapiens, UniProt P04439, A269V/D140Y/D185E/E176V/E277Q/E87N/F33Y/G231S/I121R/I166T/I218V/L180W/L300P/L318F/N151K/P208A/P217A/Q86R/R138H/R169H/S129P/T345S/V36M); experiment: Fluorescent peptide binding to HeLaM cells treated with exogenous soluble TAPBPR; type: cell-based
# T2 construct: HLA-A68 (MHC class I) expressed on HeLa; endogenous in cells; host or cells: HeLaM and derivatives (TAPBPR-KO with or without TAPBPR/tapasin constructs, +Her2, Her2-KO, +PDL1, pD-GFP); in some arms HeLaM-HLA-ABC-KO re-expressing HLA-A*68:02
# Method: Target cell lines were seeded at 25,000-30,000 cells/well in 12-well plates and stimulated with IFN-γ. Following the stimulation period, the cells were washed 3 times with 1×PBS and incubated with 300 μL pre-warmed opti-MEM (Thermo Fisher Scientific, UK). In case the peptide binding was done in the presence of recombinant TAPBPR, the cells were then treated with or without recombinant TAPBPR (100 nM for HLA-A*68:02 or 1 μM for HLA-A*02:01). After 15 min, the desired TAMRA-labelled peptide was added to the cells and incubated at 37° C. (15 min for HLA-A*68:02 or 60 min for HLA-A*02:01). In case the peptide binding was facilitated by over-expressed TAPBPR, the labelled peptide was directly added to the cells, without using recombinant TAPBPR. Following the peptide treatment, the cells were washed three times in 1×PBS and harvested. The level of bound peptide/cell was determined by flow cytometry, using the YelFL1 channel (Cytek).
# We next asked whether the exogenous TAPBPR bound to surface MHC class I molecules was capable of peptide exchange similarly to the membrane anchored version. Following incubation of cells for 15 min at 37° C. in the presence or absence of 100 nM exogenous TAPBPR, cells were treated with or without 10 nM fluorescent peptide for an additional 15 mins.
# [4] = target: T3, HLA-A68 (MHC class I) expressed on HeLa (Homo sapiens, UniProt P04439, A269V/D140Y/D185E/E176V/E277Q/E87N/F33Y/G231S/I121R/I166T/I218V/L180W/L300P/L318F/N151K/P208A/P217A/Q86R/R138H/R169H/S129P/T345S/V36M); experiment: ETV* peptide loading on HeLaM and HeLaM-pD-GFP cells; type: cell-based; settings: 1 nM recombinant protein
# T3 construct: HLA-A68 (MHC class I) expressed on HeLa; endogenous in cells; host or cells: HeLaM and derivatives (TAPBPR-KO with or without TAPBPR/tapasin constructs, +Her2, Her2-KO, +PDL1, pD-GFP); in some arms HeLaM-HLA-ABC-KO re-expressing HLA-A*68:02
# surface MHC I molecules = target: T4, surface MHC I molecules (Homo sapiens, UniProt P04439, A269V/D140Y/D185E/E176V/E277Q/E87N/F33Y/G231S/I121R/I166T/I218V/L180W/L300P/L318F/N151K/P208A/P217A/Q86R/R138H/R169H/S129P/T345S/V36M); experiment: TAPBPR remaining on cell surface after peptide binding (PeTe4 staining); type: cell-based; settings: 100 nM soluble TAPBPR^WT, then 10 nM peptide 15 min
# T4 construct: HLA-A68 (MHC class I) expressed on HeLa; endogenous in cells; host or cells: HeLaM and derivatives (TAPBPR-KO with or without TAPBPR/tapasin constructs, +Her2, Her2-KO, +PDL1, pD-GFP); in some arms HeLaM-HLA-ABC-KO re-expressing HLA-A*68:02
# Source text: Subsequently, the amount of TAPBPR remaining on the cell surface was detected by staining with the TAPBPR specific mAb PeTe4.
molecule,measurement,setting,value
"soluble TAPBPR^WT: secreted His-tagged luminal domain of human TAPBPR, lacking transmembrane domain and cytoplasmic tail; SEQ ID NO: 2 (protein, His tag; TAPBPR luminal domain (mature sequence without 21 aa leader sequence)) KPHPAEGQWRAVDVVLDCFLVKDGAHRGALASSEDRARASLVLKQVPVLDDGSLEDFTDFQGGTLAQDDPPIIFEASVDLVQIPQAEALLHADCSGKEVTCEISRYFLQMTETTVKTAAWFMANVQVSGGGPSISLVMKTPRVAKNEVLWHPTLNLPLSPQGTVRTAVEFQVMTQTQSLSFLLGSSASLDCGFSMAPGLDLISVEWRLQHKGRGQLVYSWTAGQGQAVRKGATLEPAQLGMARDASLTLPGLTIQDEGTYICQITTSLYRAQQIIQLNIQASPKVRLSLANEALLPTLICDIAGYYPLDVVVTWTREELGGSPAQVSGASFSSLRQSVAGTYSISSSLTAEPGSAGATYTCQVTHISLEEPLGASTQVVPPERR",binding of exogenous TAPBPR to HeLaM cells,[1],clearly detectable on the cell surface
same,binding of exogenous TAPBPR to HeLaM-HLA-ABC^KO cells,[2],could no longer bind
same,binding to either of the HeLaM cell lines,[3]; 10 nM recombinant protein,did not exhibit any binding
same,binding to HeLaM cells (lacking GFP),[3]; 100 nM recombinant protein,bound at low levels
same,binding of exogenous fluorescent peptides ETVSK*QSNV and YVVPKVAK*V to HeLaM,"HLA-A*68:02; 100 nM exogenous TAPBPR 15 min, then 10 nM peptide 15 min",significant enhancement in the binding of exogenous fluorescent peptides
same,exogenous peptide binding over increasing ETVSK*QSNV concentrations,"HLA-A*68:02; -/+100 nM TAPBPR, 15 min",enhanced exogenous peptide binding to cells over a wide range of peptide concentrations
same,exogenous peptide loading onto antibody-target expressing cells at 1 nM protein,[4],no peptide loading
same,dissociation of TAPBPR from cells after peptide binding,surface MHC I molecules,dissociate from cells upon high affinity peptide binding
